Laboratory results reported in the DeepSol protein solubility set.

experiment: soluble on expression in E. coli; label from the status in PepcDB or PDB records

Sequence	soluble on expression in E. coli
MGHHHHHHSHEEEGSPGGREDGFTAEHLAAEAMAADMDPWLVFDARTTPATELDAWLAKYPPSQVTRYGDPGSPNSEPVGWIAVYGQGYSPNSGDVQGLQAAWEALQTSGRPITPGTLRQLAITHHVLSGKWLMHLAPGFKLDHAWAGIARAVVEGRLQVAKVSPRAKEGGRQVICVYTDDFTDRLGVLEADSAIRAAGIKCLLTYKPDVYTYLGIYRANRWHLCPTLYESRFQLGGSARGSRVLDRANNVELT	soluble
MGHHHHHHSHEPRVNTSALQKIAADMSNIIENLDTRELHFEGEEVDYDVSPSDPKIQEVYIPFSAIYNTQGFKEPNIQTYLSGCPIKAQVLEVERFTSTTRVPSINLYTIELTHGEFKWQVKRKFKHFQEFHRELLKYKAFIRIPIPTRRHTFRRQN	not soluble
MGHHHHHHSHKPVPWVEKYRPKCVDEVAFQEEVVAVLKKSLEGADLPNLLFYGPPGTGKTSTILAAARELFGPELFRLRVLELNASDERGIQVVREKVKNFAQLTVSGSRSDGKPCPPFKIVILDEADSMTSAAQAALRRTMEKESKTTRFCLICNYVSRIIEPLTSRCSKFRFKPLSDKIQQQRLLDIAKKENVKISDEGIAYLVKVSEGDLRKAITFLQSATRLTGGKEITEKVITDIAGVIPAEKIDGVFAACQSGSFDKLEAVVKDLIDEGHAATQLVNQLHDVVVENNLSDKQKSIITEKLAEVDKCLADGADEHLQLISLCATVMQQLSQNC	not soluble
MGHHHHHHSHMAASFAFLRDVRPYKTSWRVQVKVLHSWCQYTNMTGETLKLVLVNSQGVKIHASVKKDLVSKYVNNLPLNEWTFIETFALNHASGQFRPTGHLYKMSFVTGTQVIRCDS	soluble
MGHHHHHHSHMAFCAILLVPSLCRMPSLPTSPWAFPVHWAGFMFKPLDWQGNDFFPPQDEVLAPCLGIKTPLKHEPCASLPFSVLFQSSASQSLLGTMGSLSPHLCGHTMCPVNPELPLSFQADHRSAQPDACSPLCHPSSLLPSFHTASLPFSIHAHHSPLPCDLDPPLYLAETVSLLEEWGPPSSCPMQCKLTSHPARLTHLPPCLWGFAVALKPSWAGLAPSLLPPPRMSLCRPLSFLRHQCPWLPWQAHQGLVPWSPSMVAAACIVSPSGHCRCQPFIPHVFLGHGGLTSVSGECG	not soluble
MGHHHHHHSHMAFRQPNTKELKVIRKALSYYGSGDFLSHYALLVKEGEKKEVYGVSKELYGVIGELNPHYAGVKIGEVGRRFRFSLEGTFWLLRNSRNRVWVNERGEMLFLYGRDIFAGSVERASEFGENSIVFVCNRFDDVLGIGRSRHSSDELSNLPEDKVFVENLVDRGEYLRH	soluble
MGHHHHHHSHMDALSPSPAIPSNTDYPGPHSFDVSFQQSSTAKSATWTYSTELKKLYCQIAKTCPIQIKVMTPPPQGAVIRAMPVYKKAEHVTEVVKRCPNHELSREFNEGQIAPPSHLIRVEGNSHAQYVEDPITGRQSVLVPYEPPQVGTEFTTVLYNFMCNSSCVGGMNRRPILIIVTLETRDGQVLGRRCFEARICACPGRDRKADEDSIRKQQVSDSTKNGDGTKRPFRQNTHGIQM	not soluble
MGHHHHHHSHMDGTRTSLDIEEYSDTEVQKNQVLTLEEWQDKWVNGKTAFHQEQGHQLLKKHLDTFLKGKSGLRVFFPLCGKAVEMKWFADRGHSVVGVEISELGIQEFFTEQNLSYSEEPITEIPGTKVFKSSSGNISLYCCSIFDLPRTNIGKFDMIWDRGALVAINPGDRKCYADTMFSLLGKKFQYLLCVLSYDPTKHPGPPFYVPHAEIERLFGKICNIRRLEKVDAFEERHKSWGIDCLFEKLYLLTEK	soluble
MGHHHHHHSHMDSTTVNYFALFEVISHSFVRKLAPNEFPHKLYIQNYTSAVPGTCLTIRKWLFTTEEEILLNDNDLAVTYFFHQAVDDVKKGYIKAEEKSYQLQKLYEQRKMVMYLNMLRTCEGYNEIIFPHCACDSRRKGHVITAISITHFKLHACTEEGQLENQVIAFEWDEMQRWDTDEEGMAFCFEYARGEKKPRWVKIFTPYFNYMHECFERVFCELKWRKEEY	not soluble
MGHHHHHHSHMGVPYSVLEPVLERCTPDQLYRIEEYNHVLIEETDQLWKVHCHRDFKEERPEEYESWREMYLRLQDAREQRLRVLTKNIQFAHANKP	soluble
MGHHHHHHSHMIGKCTHVVDCRETMGMGEGGGIAQRGTFAQCGSEVLAVAMSPGRRHITKPVCEITFALREANIMTSTIVLNAGAGVPQDAPSAGAGSLFGLTPAEVEQMKRHKLLVVHLGGVKNHITYKARLILRNVDRPCIIICEYPVDFEDFAKIGVRTRAVMPDEPKTKGTIVDIVSGVIRGETCPQEKLDEIIRKVKLALGGA	soluble
MGHHHHHHSHMKPSGEDQAALAAGPWEECFQAAVQLALRAGQIIRKALTEEKRVSTKTSAADLVTETDHLVEDLIISELRERFPSHRFIAEEAAASGAKCVLTHSPTWIIDPIDGTCNFVHRFPTVAVSIGFAVRQELEFGVIYHCTEERLYTGRRGRGAFCNGQRLRVSGETDLSKALVLTEIGPKRDPATLKLFLSNMERLLHAKAHGVRVIGSSTLALCHLASGAADAYYQFGLHCWDLAAATVIIREAGGIVIDTSGGPLDLMACRVVAASTREMAMLIAQALQTINYGRDDEK	not soluble
MGHHHHHHSHMLLTMPGGVAKAGYLHKKGGTQLQLLKWPLRFVIIHKRCVYYFKSSTSASPQGAFSLSGYNRVMRAAEETTSNNVFPFKIIHISKKHRTWFFSASSEEERKSWMALLRREIGHFHEKKDLP	soluble
MGHHHHHHSHMLTKFETKSARVKGLSFHPKRPWILTSLHNGVIQLWDYRMCTLIDKFDEHDGPVRGIDFHKQQPLFVSGGDDYKIKVWNYKLRRCLFTLLGHLDYIRTTFFHHEYPWILSASDDQTIRVWNWQSRTCVCVLTGHNHYVMCAQFHPTEDLVVSASLDQTVRVWDISGLRKKNLSPGAVESDVRGITGVDLFGTTDAVVKHVLEGHDRGVNWAAFHPTMPLIVSGADDRQVKIWRMNESKAWEVDTCRGHYNNVSCAVFHPRQELILSNSEDKSIRVWDMSKRTGVQTFRRDHDRFWVLAAHPNLNLFAAGHDGGMIVFKLERERPA	not soluble
MGHHHHHHSHMMSPGLLLKPWWGGAQSEMGRNGMLEGCSVMSVGASRLGEGRVRPRAHSRRPVTRPRWRAAGPCTGTCQGGSHSRTLVLRLKAVSTTPTSANDLVQIKFRRDGGNRVVEALNLSEKRKDRKALCFSQSLHLQGEEIELTALSRSFQLRNVYFMISNI	not soluble
MGHHHHHHSHMNLGKESRAQTLQNGRRHIHHLGNQLQLNQHCLDTAFNFFKMAVSRHLTRGRKMAHVIAACLYLVCRTEGTPHMLLDLSDLLQVNVYVLGKTFLLLARELCINAPAIDPCLYIPRFAHLLEFGEKNHEVSMTALRLLQRMKRDWMHTGRRPSGLCGAALLVAARMHDFRRTVKEVISVVKVCESTLRKRLTEFEDTPTSQLTIDEF	not soluble
MGHHHHHHSHMNSRRRKAQFFLGTTNKRAKTVVLHIDGLDDTSRRNLCEEALLKIKGVISFTFQMAVQRCVVRIRSDLKAEALASAIASTKVMKAQQVVKSESGEEMLVPFQDTPVEVEQNTELPDYLPEDESPTKEQDKAVSRVGSHPEGGASWLSTAANFLSRSFYW	not soluble
MGHHHHHHSHMPARTDSVIIADQTPTPTRFLKNCEEVGLFNELASSFEHEFKKAADEDEKKARSRTVAKKLVAAAGPLDMSLPSTPDIKIKEEEPVEVDSSPPDSPASSPCSPPLKEKEVTPKPVLISTPTPTIVRPGSLPLHLGYDPLHPTLPSPTSVITQAPPSNRQMGSPTGSLPLVMHLANGQTMPVLPGPPVQMPSVISLARPVSMVPNIPGIPGPPVNSSGSISPSGHPIPSEAKMRLKATLTHQVSSINGGCGMVVGTASTMVTARPEQSQILIQHPDAPSPAQPQVSPAQPTPSTGGRRRRTVDEDPDERRQRFLERNRAAASRCRQKRKLWVSSLEKKAEELTSQNIQLSNEVTLLRNEVAQLKQLLLAHKDCPVTALQKKTQGYLESPKESSEPTGSPAPVIQHSSATAPSNGLSVRSAAEAVATSVLTQMA	soluble
MGHHHHHHSHMPASLALLQPRAMMKTLSSGNCTLSVPAKNSYRMVVLGASRVGKSSIVSRFLNGRFEDQYTPTIEDFHRKVYNIRGDMYQLDILDTSGNHPFPAMRRLSILTGDVFILVFSLDNRESFDEVKRLQKQILEVKSCLKNKTKEAAELPMVICGNKNDHGELCRQVPTTEAELLVSGDENCAYFEVSAKKNTNVDEMFYVLFSMAKLPHEMSPALHRKISVQYGDAFHPRPFCMRRVKEMDAYGMVSPFARRPSVNSDLKYIKAKVLREGQARERDKCTIQ	not soluble
MGHHHHHHSHMPATLLRAVARSHHILSKAHQCRRIGHLMLKPLKEFENTTCSTLTIRQSLDLFLPDKTASGLNKSQILEMNQKKSDTSMLSPLNAARCQDEKAHLPTMKSFGTHRRVTHKPNLLGSKWFIKILKRHFSSVSTETFVPKQDFPQVKRPLKASRTRQPSRTNLPVLSVNEDLMHCTAFATADEYHLGNLSQDLASHGYVEVTSLPRGTSS	not soluble
MGHHHHHHSHMPSLNLFPSVSDSGFWTGGTALRNPPSRPPYLSIAMTTLVSLATDLKYGSTLLGRIKTVLDASVAQLTVADVTTEDIVNFLNSLNGIDHELFSFIRTYPVFFVLHLCTLDRTQTYTSGQVIKTIKHLITTFREVLCEDMGADNDSIISNSNILKDCSWYLTKLETEQMSTSIPHLPKSCITFPCMEQVHHLVHNATLATLPNSWTSPLPSLNSVYVQWFVLSYKHKVFPDEVPSSNIQDLADKMTNIYKHLFVPHTSQLTGASIILARSLDILSQFTPLEKIPSNSPAVAFGDDELSNIPSNCHLMFGHLIESIYMGMTYACTLGAVEQFIREAFDVVLGVASEIKRTASLSDLPTVTKLVNIKRILIEHGLSETRCEEYAQALPKWQHREGIYPFEETLDHFHQKLSTLIKFCLEFYNTLMLVSPTSISHSYLKENNYLLQLDRKSAASQGQGPDDINLLEKVFTFVYPQVPGQDLQRIHDAIDSDIMRTLFFSWVNRNWGIVLITQNPLMEPSCEHQVSEERVAAYCKRMPVGDLSYEPAMVSHKMFYKYFIRHIVGPTIQGIFSRKTSRNRALFQIRWLLSFAITDTPQLQEIRRPLGMFYFELLDIINGTNKPSAMKNLLDHALDLKKKINKINQTFSIPQDLILYLFVLDTGASYINSVDYITAIIPKVEHLLLRGRNILRLGSILCHTKYNYHPLTHQFTILSSSGQILEVHLETLKSLISQVEKDHSQLLMEITDLEGELRGEYSTVLSLLQDLEAYKQHELGIEFDTEPWNQLKQSFSGILSRISSGLSLLSKGCSSCLRKRFHDLFSQEIITPTILKAASAGNVEIIKNLKEIPVNLMAPPTDTSMTQAGGNPTDEDLTMLYSTYPQIFSQNAARGEKHPPQLKKYSSTYDRIPLDVNWQIFTQQTYTAEHAECPYTIVKIHDIIKLLS	not soluble
MGHHHHHHSHMQEQVLYPLEAEVTMVTSFQDADPMGVIYHGNFFRYFEEARRVLMEKIQYGYRDMQDSGYMWPIIDTRVKYVKAIPFNHTIRITAQLTEWENRLRVDYVIYDAETNQRMCKAHTTQVAVSIEKQEMCFVSPAVFLDKVEQWHNHGSLN	soluble
MGHHHHHHSHMRPELLEYYIKVILDYNTAHNKVALSECYTVASVAEMPQNYRPHPQRFTYCSQVLGLHCYKKGIHYWEVELQKNNFCGVGICYGSMNRQGPESRLGRNSASWCVEWFNTKISAWHNNVEKTLPSTKATRVGVLLNCDHGFVIFFAVADKVHLMYKFRVDFTEALYPAFWVFSAGATLSICSPK	not soluble
